Here are results for 14 molecules from patent US20230212305A1 (published 2023).

Test [1] concerns the target T1, cynomolgus ABCG2 (Macaca fascicularis) (Macaca fascicularis (cynomolgus), UniProt Q5MB13 1-654 (rhesus entry)).
T1 construct: also called cABCG2
T1 sequence: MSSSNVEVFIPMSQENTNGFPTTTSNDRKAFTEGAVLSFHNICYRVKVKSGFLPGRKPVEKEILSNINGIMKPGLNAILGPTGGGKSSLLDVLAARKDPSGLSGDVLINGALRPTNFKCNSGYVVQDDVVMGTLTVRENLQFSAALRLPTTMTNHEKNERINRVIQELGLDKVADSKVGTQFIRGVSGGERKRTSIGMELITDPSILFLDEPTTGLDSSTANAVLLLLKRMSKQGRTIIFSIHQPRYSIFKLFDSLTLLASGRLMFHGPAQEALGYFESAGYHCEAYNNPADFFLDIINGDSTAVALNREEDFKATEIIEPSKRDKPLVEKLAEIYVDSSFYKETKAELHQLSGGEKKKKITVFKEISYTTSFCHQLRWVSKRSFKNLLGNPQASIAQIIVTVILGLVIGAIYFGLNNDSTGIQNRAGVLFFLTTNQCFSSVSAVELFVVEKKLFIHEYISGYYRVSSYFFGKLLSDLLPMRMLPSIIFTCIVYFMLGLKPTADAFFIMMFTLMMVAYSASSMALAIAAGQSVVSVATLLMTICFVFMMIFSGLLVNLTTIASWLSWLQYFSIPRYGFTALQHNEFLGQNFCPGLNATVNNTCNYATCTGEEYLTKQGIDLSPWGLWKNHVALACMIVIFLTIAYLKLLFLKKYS
Put plainly: flow cytometry on cells expressing cynomolgus ABCG2.
Protocol: (§1) Cell Binding Assays. Antibody binding to cells was evaluated by flow cytometry. […] After incubating cells on ice for 30 min, cells were washed twice with flow cytometry buffer. Bound antibody was detected with PE-labeled F(ab′)₂ fragment goat anti-human IgG (Jackson ImmunoResearch) and evaluated on an Attune NxT flow cytometer.

A further test addresses T2, human ABCG2 (human, UniProt Q9UNQ0 1-655).
T2 construct: also called hG2; KPG2
T2 sequence: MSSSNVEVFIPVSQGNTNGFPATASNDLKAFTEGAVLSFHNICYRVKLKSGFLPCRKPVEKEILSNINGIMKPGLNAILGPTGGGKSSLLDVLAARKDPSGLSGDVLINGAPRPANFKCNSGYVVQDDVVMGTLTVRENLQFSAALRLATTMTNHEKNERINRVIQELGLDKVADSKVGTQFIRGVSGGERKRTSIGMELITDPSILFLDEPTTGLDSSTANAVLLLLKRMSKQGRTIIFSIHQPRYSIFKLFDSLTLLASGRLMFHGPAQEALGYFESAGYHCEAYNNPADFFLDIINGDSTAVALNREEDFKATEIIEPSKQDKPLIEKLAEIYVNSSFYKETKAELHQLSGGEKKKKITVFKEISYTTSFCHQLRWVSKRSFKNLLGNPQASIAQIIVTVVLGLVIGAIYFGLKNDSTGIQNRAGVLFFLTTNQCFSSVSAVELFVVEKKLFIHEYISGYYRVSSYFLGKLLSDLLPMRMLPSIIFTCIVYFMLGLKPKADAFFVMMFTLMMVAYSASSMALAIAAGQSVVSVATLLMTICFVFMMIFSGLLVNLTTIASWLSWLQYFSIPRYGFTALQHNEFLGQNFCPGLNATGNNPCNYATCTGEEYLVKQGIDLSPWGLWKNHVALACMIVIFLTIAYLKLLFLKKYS
Put plainly: flow cytometry titration on 293T_ABCG2_OX cells; column Affinity for human ABCG2 (nM).

Test [2] has as its target T1, cynomolgus ABCG2 (Macaca fascicularis). Put plainly: flow cytometry on cells expressing cynomolgus ABCG2; paragraph 395: non-significant binding = -.
Protocol: as §1

Protocol for human ABCG2: as §1

B1: G2.348 rat (antibody, human IgG1, V domains shown)
VH: EVQLVESGPGLMQPSQTLSLTCTVSGFSLTSNGVSWVRQPPGKGLEWIATISSGGNTNYNSALKSRLSISRDTSKSQVFLKMNSLQTEDTAIYFCTRVGYYGYNPIWFAYWGQGTLVTVSS
VL: DVVMTQTPPTLSATIGHSVSISCRSSQSLFHSSGNTYLSWFLQRPGQPPQLLIYLVSRLESRVPNRFSGSGSGTDFTLKISVLEAEDLGVYYCVQTTHAPFTFGSGTKLEIK
notes: Variable regions cloned onto human IgG1 constant heavy chain and human kappa constant light chain
B1: the binding result in test [1] is “binds”. The affinity in the test with human ABCG2, expressed as Kd, was 80 nM.

B2: G2.302 mouse (antibody, human IgG1, V domains shown)
VH: QIQLQQSGPELVRPGASVKISCKASGYTFTDYYINWVKQRPGQGLEWIGWIYPGNVNVKYNEKFKGKATLTVDTSSSTGYMQLRSLTSEDSAVYFCARSIGLRYFDNWGQGTTLTVSS
VL: EKVLTQSPAIMSASLGEKVTMSCRASSSVHYMYWHQQKSDASPRLWIYYTSNLAPGVPARFSGSGSGNFYSLTISSVEDEDGATYYCQQFTTSTWTFGGGTKLEIK
notes: Variable regions cloned onto human IgG1 constant heavy chain and human kappa constant light chain; also called G.302
As to B2, the binding result in test [1] was “binds”. In the test with human ABCG2, the Kd was determined as 25 nM.

B3: G2.257 mouse (antibody, human IgG1, V domains shown)
VH: EVQLQQSGPELVKPGASLKISCKTFGYSFTGYYMHWVKQSPEKSLEWIGKIVPSTGGTTYNQKFKAKATLTVDKSSFTAYMQLKSLTTEDSAVYYCAREKVYGYDVYYFDYWGQGTTLTVSS
VL: DIQMTQTPSSLSASLGDRVTITCSTSQGVRSYLNWYQQKPDGSVKLLIYYTSSLHSGVPSRFSGSGSGTDYSLTISNLEPEDIATYYCQQYSKLPYTFGGGTKLELK
notes: as for B1
B3: in test [1], the binding result is recorded as “binds”. This molecule came in with a Kd with human ABCG2 of 7.9 nM.

B4: G2.302 Humanized (antibody, human IgG1, V domains shown)
VH: EIQLVQSGAEVKKPGASVKVSCKASGYTFTDYYINWVRQAPGQRLEWIGWIYPGNVNVKYNEKFKGRATLTVDTSASTGYMELSSLRSEDTAVYFCARSIGLRYFDNWGQGTLVTVSS
VL: EKVLTQSPATLSLSPGERATLSCRASSSVHYMYWHQQKPGQSPRLWIYYTSNLAPGVPARFSGSGSGNDYTLTISSLEPEDFAVYYCQQFTTSTWTFGGGTKLEIK
Turning to B4, the binding result in test [1] is reported as “binds”. Also, the Kd with human ABCG2 turned out to be 59 nM.

B5: G2.394 rat (antibody, human IgG1, V domains shown)
VH: EVQLKESGPGLVQPSQTLSLTCTVSGFSLTDYTITWVRQPPGKGLEWIAATSVGGATHYNSPLKSRLSISGDTSKSQVFLKMNSLRTEDTAMYFCVRSGYYSTYMNWGRGTMVTVSS
VL: DVVMTQTPPTFSATIGQSVSISCRSSQSLLHSSGNTFLSWLLQRPGQPPQLLIYLVSRLEFGVPNRFSGSGSGTDFTLKISGVEAEDLGVYYCVQSTHVMNTFGAGTKLEIK
notes: as for B1
In the case of B5, in test [1], the binding result was “binds”. The molecule further showed a Kd with human ABCG2 of 88 nM.

B6: G2.343 rat (antibody, human IgG1, V domains shown)
VH: SVQLKESGPGLVQPSQTLSLTCTVSGFSLTSNGVSWVRQPPGKGLEWIAAISSGGSTYYNSVLKSRLSISRDTSKSQVFLKMNSLQTEDTAIYFCTRDTYYGYNQIPFVYWGQGTLVTVSS
VL: DVVLAQTPPTLSATIGQSVSISCRSSQSLLHSSGNTYLNWLLQRPGQPPQLLIYLVSRLESRVPNRFSGSGSGTDFTLKISGVEAEDLGVYYCVQSTHAPRTFGGGTKLELK
notes: as for B1
For the molecule B6, in test [1], the binding result is reported as “binds”. The same molecule registered a Kd with human ABCG2 of 40 nM.

B7: G2.346 rat (antibody, human IgG1, V domains shown)
VH: SVQWKESGPGLVQPSQTLSLTCTVSGFSLTSNGVSWVRQPPGKGLEWIAAISSGGSTYYNSGLKSRLSISRDTSKSQVFLKMNSLQTEDTAIYFCTRAGYYGYNPIWFTYWGQGTLVTVSS
VL: DVVMTQTPPTLSATIGQSVSISCRSSQSLLHGSGNTYLNWLLQRPGQPPQILIYLVSRLESRVPKRFSGSGSGTDFTLKISGVEADDLGVYYCVQSTHAPFTFGSGTKLELK
notes: as for B1
Take B7: the binding result in test [1] is reported as “binds”. The Kd in the test with human ABCG2 was 168 nM.

B8: G2.420 rat (antibody, human IgG1, V domains shown)
VH: SVQLMESGPGLVQPSQTLSLTCTVSGFSLNSYNVNWVRQPPGKGLEWIAAISSGGSTYYNSVLKSRLSITRDTSKSQVFLKMNSLQTEDTAMYFCARSGYYSSYMNWGQGVMVTVSS
VL: DVVMTQTPPTLSATIGQSVSISCRSSQSLLHSTGNTYLNWLLQRPGQPPQLLIYLVSRLEYGVPNRFSGSGSGTDFTLKISGVEAEDLGVYYCAQSTHALNTFGAGTKLELK
notes: Variable regions cloned onto human IgG1 constant heavy chain and human kappa constant light chain; also called G.420; KNJY-G2-420
In the case of B8, the binding result in test [1] was “binds”. Moreover, in the test with human ABCG2, binding was put at a Kd of 56 nM.

B9: G2.173 mouse (antibody, human IgG1, V domains shown)
VH: QVQLQQSGADLVRPGASVKLSCTASGFNIKDDYVHWVKQRPEQGLEWIGRIDPANGNTRYAPKFRGKATMTADTSSNTAYLQLSSLTSADTAVYYCSPPLWVGGFAYWGQGTLVTVSS
VL: DVVMTQTPLSLPVSLGDQASISCRSSQSLVHSDVNTYLHWYLQRPGQSPKLLIYKVSNRFSGVPDRFSGSGSGTDFTLKISRVESEDLGIYFCSQTTHVPYTFGGGTKLEIK
notes: as for B1
In the case of B9, the binding result in test [2] was “no binding”. Further, the Kd with human ABCG2 turned out to be 17 nM.

B10: G2.173 Humanized 1 (antibody, human IgG1, V domains shown)
VH: EVQLVQSGAEVKKPGASVKVSCKASGFNIKDDYVHWVRQAPGQGLEWIGRIDPANGNTRYAPKFRGRATMTADTSISTAYMELSRLRSDDTAVYYCSPPLWVGGFAYWGQGTLVTVSS
VL: DVVMTQSPLSLPVTLGQPASISCRSSQSLVHSDVNTYLHWYQQRPGQSPRLLIYKVSNRFSGVPDRFSGSGSGTDFTLKISRVEAEDVGVYFCSQTTHVPYTFGGGTKLEIK
On to B10, for which the binding result in test [2] is on record as “no binding”. Also, binding with human ABCG2 was put at a Kd of 46 nM.

B11: G2.630 rat (antibody, human IgG1, V domains shown)
VH: EVQLVESGPGLVKPSQSLSLTCSVTGYTITSGYDWTWIRKFPGNKMEWMGYISYSGFTNYNPSLRSRISITRDTSKNQFFLQLNSVTTEDTATYYCTRTRGYNPFAYWGQGTLVTVSS
VL: DVVMTQSPSLLSASVGDRVTLSCKAGRNINNYLAWYQQKLGKAPKLLIYNTNSLQTGIPSRFSGSGSGTDFTLTISSLQPEDVATYFCQQYNSWTTFGSGTKLEIK
notes: as for B1
B11: the binding result in test [1] is on record as “binds”.

B12: G2.320 rat (antibody, human IgG1, V domains shown)
VH: EVQLEESGPGLVKPSQSLSLTCSVTGYTITSGYDWTWIRKFPGNKMEWMGYISYSGFTNYNPSLRSRISITRDTSKNQFFLQLNSVTTEDTATYYCTRTRGYNPFAYWGQGASVSSAS
VL: DIVMTQSPSLLSASVGDRVTLSCKAGRNINNYLAWYQQKLGKAPKLLIYNTNSLQTGIPSRFSGSGSGTDFTLTISSLQPEDVATYFCQQYNSWTTFGSGTKLEIK
notes: as for B1
Consider B12, for which, in test [1], the binding result was “binds”.

B13: G2.318 rat (antibody, human IgG1, V domains shown)
VH: EVKLLESGPGLVKPSQSLSLTCSVTGYTITSGYDWSWIRKFPGNKMEWMGYISYSGWTNYNPSLRSRISISRDTSKNQFFLQLNSVTTEDTATYYCARVRGYNPFAYWGQGTLVTVSS
VL: DIVMTQSPSLLSASVGDRVTLSCKAGQNINNYLAWYQQKLGEAPKLLIYNANSLQTGIPSRFSGSGSGTDFTLTISSLQPEDVATYFCQQYNSWTTFGSGTKLEIK
notes: as for B1
Turning to B13, in test [1], the binding result is “binds”.

B14: G2.65 mouse (antibody, human IgG1, V domains shown)
VH: QGQMHQSGAELVKPGASVKLSCKTSGFTFNSGYISWLKQKPRQSLEWIAWIYAGTGISNFNQKFTGKAQLTVDTSSSTAYMQLSSLTSADSAIYFCASGARKTLDFWGQGTSVTVSS
VL: DIQMTQSSSYLSVSVGGRVTITCKASDQINYWLAWYQQKPGNAPRLLISGATSLETGVPSRFSGSGSGKDYTLSITSFQTEDVATYYCQQYWTTPYTFGGGTKVEIK
notes: Variable regions cloned onto human IgG1 constant heavy chain and human kappa constant light chain; also called KNJY-G2-65
Turning to B14, in test [2], the binding result is given as “no binding”. This molecule also gave a Kd in the test with human ABCG2 of 179 nM.
